Test results published in US20080020405A1, “Protein binding determination and manipulation” (priority 2002, published 2008).

Target: T1, WT SCCE (Stratum Corneum Chymotryptic Enzyme) (Homo sapiens, UniProt P49862)
T1 construct: made in house; host or cells: High 5 insect cells, transient transfection with pIE1-153A V4+ plasmid, protein secreted into the medium, Ni-NTA purified
Test: Panning of the 6mer tandem phage peptide display library against WT SCCE, four rounds, clones sequenced
Assay type: binding
Conditions: for Hypervarible Domain, DNA sequence of clone, 6 mer Lib Panning Round 4 SCCE WT / Hypervarible Domain, peptide sequence of clone, 6 mer Lib Panning Round 4 SCCE WT: 6mer library, panning round 4 against SCCE WT; for Hypervarible Domain, DNA sequence of clone, 6 mer Lib Panning Round 4 SCCE WT: flanking TGC (Cys) codons; for Hypervarible Domain, peptide sequence of clone, 6 mer Lib Panning Round 4 SCCE WT: translated hexapeptide
Protocol: Packaging of Phagemids from Cells • 1. Re-suspend the complete lawns of the E. coli cells in 20 ml of LB/Amp/Tc medium and use 2 ml for inoculation of 50 ml LB/Amp/Tc medium (250 ml Erlenmeyer flask). • 1. Incubate at 180 rpm and 37° C. for 1 hour, add […] of M13K07 stock solution (10^11-10^12 cfu/ml) and incubate for 15 minutes at 37° C. without shaking. • 2. Allow the culture to shake at 37° C. for 45 min, then add Kanamycin (final concentration of 50 μg/ml) and continue the incubation at 37° C. @ 180 rpm overnight. • 3. The next day, centrifuge for 15 minutes at 8,000 rpm and 4° C. (GS3 rotor, Sorvall RC5C). • 4. Transfer the supernatant into a new centrifuge bottle and centrifuge again. • 5. Transfer the supernatant again, add 0.15 vol of PEG/NaCl solution, mix and incubate on ice for at least 2 hours. • 6. Centrifuge for 40 minutes at 8,000 rpm (GS3 rotor) • 7. Decant the supernatant, repeat the centrifugation for 1 minute at 4,000 rpm and remove last traces of supernatant using a pipet. • 8. Re-suspend each PEG-pellet in 1.0 ml PBS solution and collect the re-suspended phages in one SS34 centrifuge bottle • 9. To clear the suspension, centrifuge again for 10 minutes at 12,000 rpm (SS34 rotor). • 10. Recover the supernatant (pipet), add NaN3 to a final concentration of 0.02% and store the library at 4° C. Determination of Phagemid (Library) Titer (Colony Forming Units [CFU] Assay) • 1. Inoculate 20 ml of LB/Tc (20 μg/ml) medium with 200 μl of an E. coli WK6λmutS overnight culture (37° C.; LB/Tc) and incubate at 37° C. and 180 rpm for 2 to 3 hours (OD600=0.5) • 2. Fill 12 wells of a sterile 96-well culture dish with 90 μl of autoclaved water and prepare dilution series by transferring 10 μl aliquots of the library stock (dilutions 10^−1 to 10^−12). • 3. Add 100 μl of logarithmic growing cells, mix and incubate for 30 min at 37° C. • 4. Spot 20 μl portions of each well on LB/Amp/Tc agar plates and incubate over night at 37° C. • 5. As a control use 20 μl of non-infected log-phase cells spotted on LB/Amp/Tc and LB/Tc agar plates. • 6. Count the number of colonies on the next day and determine the titer. Panning Protein Targets • WT SCCE is the Stratum Corneum Chymotryptic Enzyme subdloned in the pIE vector and adapted with a carboxy-terminal polyglycine linker and polyhistidine sequence to facilitate purification and immobilization (see WT SCCE preparation below). The adaptations were performed using a QuickChange mutagenesis kit. The sequence is listed in document SCCE His6 pIE.doc. • Fyn SCCE is the Stratum Corneum Chymotryptic Enzyme adapted with a polyglycine liker, the Fyn SH3 domain and additional polyglycine linker and a polyhistidine sequence (see Fyn SCCE preparation below). The final sequence is listed in document SCCE FYN His6 pIE.doc. The modifications to create Fyn SCCE were performed using WT SCCE as a template using a QuickChange mutagenesis kit. • The expression and purification of WT SCCE and Fyn SCCE are presented in document SCCE production.doc Pre-Adsorption of Library with Matrix to Remove Non-Specific Binding • 1. Take 25 μl Ni-NTA Magnetic Agarose Beads (Qiagen) in a 1.5 ml tube (siliconized), labeled pre-adsorption library. • 2. Place in Magnet and remove Sup. • 3. Wash 2 times (2 min each time) with 500 μl Ni-NTA Binding Buffer (50 mM NaH2PO4 pH8.0, 300 mM NaCl, 10 mM Imidazole) to equilibrate beads to Immidizole. • 4. Add 200 μl TBS-T 0.1% BSA+200 μl (10^12 phage) of 6mer library to tube labeled pre-adsorption library (to remove phage that stick non-specifically to the beads). • 5. Incubate @ room temperature for 1 h w/rotation. Coating Matrix with Target Protein • 6. Take 25 μl Ni-NTA Magnetic Agarose Beads (Qiagen) in 2 separate 1.5 ml Ep tubes (siliconized), labeled SSCE-WT and SCCE-FYN. • 7. Place in Magnet and remove Sup. • 8. Wash 2 times (2 min each time) with (500 μl) Ni-NTA Binding Buffer (50 mM NaH2PO4 pH8.0, 300 mM NaCl, 10 mM Imidazole) to equilibrate beads to Immidizole. • 9. […]

T1 sequence (P49862 30-253): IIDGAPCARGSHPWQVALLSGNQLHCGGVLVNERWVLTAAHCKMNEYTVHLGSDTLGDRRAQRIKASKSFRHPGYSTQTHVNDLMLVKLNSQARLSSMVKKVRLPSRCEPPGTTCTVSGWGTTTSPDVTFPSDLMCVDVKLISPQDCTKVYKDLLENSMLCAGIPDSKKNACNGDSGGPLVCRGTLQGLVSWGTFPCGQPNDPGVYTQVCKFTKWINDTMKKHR

Hypervarible Domain, DNA sequence of clone, 6 mer Lib Panning Round 4 SCCE WT	Hypervarible Domain, peptide sequence of clone, 6 mer Lib Panning Round 4 SCCE WT	Clone sequence also found in the other panning (remark) (panning round 4 SCCE WT)	Substance
TGCCAGCCGCATACGTGGAAGTGC	Gln Pro His Thr Trp Lys	(Also in SCCE FYN)	041307_3 (QPHTWK; printed: Gln Pro His Thr Trp Lys)
TGCACGGCTGCGGTGGATCAGTGC	Thr Ala Ala Val Asp Gln		041307_4 (TAAVDQ; printed: Thr Ala Ala Val Asp Gln)
TGCAAGCAGAATAGTGAGGCGTGC	Lys Gln Asn Ser Glu Ala		041307_5 (KQNSEA; printed: Lys Gln Asn Ser Glu Ala)
TGCCCTGTGGCGGAGACGCCTTGC	Pro Val Ala Glu Thr Pro		041307_7 (PVAETP; printed: Pro Val Ala Glu Thr Pro)
TGCACGCCTAATTCTGCGATTTGC	Thr Pro Asn Ser Ala Ile		041307_8 (TPNSAI; printed: Thr Pro Asn Ser Ala Ile)
TGCAGTCATGTTAGGCGTAATTGC	Ser His Val Arg Arg Asn		041307_10 (SHVRRN; printed: Ser His Val Arg Arg Asn)
TGCCATCATGGGCTTATTGTGTGC	His His Gly Leu Ile Val		041307_11 (HHGLIV; printed: His His Gly Leu Ile Val)
TGCTATGCGAAGACGATGCGGTGC	Tyr Ala Lys Thr Met Arg		041307_12 (YAKTMR; printed: Tyr Ala Lys Thr Met Arg)
TGCCATCATGGGCTTATTGTGTGC	His His Gly Leu Ile Val		041307_17 (HHGLIV; printed: His His Gly Leu Ile Val)
TGCCATCATGGGCTTATTGTGTGC	His His Gly Leu Ile Val		041307_18 (HHGLIV; printed: His His Gly Leu Ile Val)
TGCCATCATGGGCTTATTGTGTGC	His His Gly Leu Ile Val		041307_19 (HHGLIV; printed: His His Gly Leu Ile Val)
TGCCATCATGGGCTTATTGTGTGC	His His Gly Leu Ile Val		041307_22 (HHGLIV; printed: His His Gly Leu Ile Val)
TGCACTCCTCTGGCGCTTCCTTGC	Thr Pro Lys Ala Lys Pro		041307_25 (TPKAKP; printed: Thr Pro Lys Ala Lys Pro)
TGCAAGAAGAAGAAGACGAAGTGC	Lys Lys Lys Lys Thr Lys		041307_27 (KKKKTK; printed: Lys Lys Lys Lys Thr Lys)
TGCCATCATGGGCTTATTGTGTGC	His His Gly Leu Ile Val		041307_29 (HHGLIV; printed: His His Gly Leu Ile Val)
TGCCCGAATAATAAGATTAGGTGC	Pro Asn Asn Lys Ile Arg		041307_30 (PNNKIR; printed: Pro Asn Asn Lys Ile Arg)
TGCACTTCTACTAGGCCTCCTTGC	Thr Ser Thr Arg Pro Pro		041307_31 (TSTRPP; printed: Thr Ser Thr Arg Pro Pro)
TGCCATATGAATATGTATATTTGC	His Met Asn Met Tyr Ile		041307_32 (HMNMYI; printed: His Met Asn Met Tyr Ile)
TGCACGGGGGCGGGGCGGTCGTGC	Thr Gly Ala Gly Arg Ser		041307_35 (TGAGRS; printed: Thr Gly Ala Gly Arg Ser)
